Experiment [1] deals with IsaA oligopeptide SEQ ID NO: 10 (Staphylococcus aureus). As to the kind of experiment: peptide array on glass slide, fluorescent secondary antibody.
For experiment [2], the target named is IsaA oligopeptide SEQ ID NO: 15 (Staphylococcus aureus). The description is as above.
The target in experiment [3] is IsaA oligopeptide SEQ ID NO: 21 (Staphylococcus aureus). Described as above.
Experiment [4] addresses IsaA oligopeptide SEQ ID NO: 22 (Staphylococcus aureus). The experiment is described as above.
For experiment [5], the target named is IsaA oligopeptide SEQ ID NO: 23 (Staphylococcus aureus). The experiment is described as above.
Experiment [6] concerns the target IsaA oligopeptide SEQ ID NO: 25 (Staphylococcus aureus). Described as above.
Experiment [7] deals with IsaA oligopeptide SEQ ID NO: 26 (Staphylococcus aureus). The description is as above.
Experiment [8] addresses IsaA oligopeptide SEQ ID NO: 27 (Staphylococcus aureus). Described as above.
For experiment [9], the target named is IsaA oligopeptide SEQ ID NO: 32 (Staphylococcus aureus). Described as above.
For experiment [10], the target named is IsaA oligopeptide SEQ ID NO: 35 (Staphylococcus aureus). The description is as above.
Experiment [11] concerns the target IsaA oligopeptide SEQ ID NO: 38 (Staphylococcus aureus). The experiment is described as above.
The target of experiment [12] is IsaA oligopeptide SEQ ID NO: 42 (Staphylococcus aureus). The experiment is described as above.
Experiment [13] deals with IsaA oligopeptide SEQ ID NO: 43 (Staphylococcus aureus). The description is as above.
The target of experiment [14] is IsaA oligopeptide SEQ ID NO: 45 (Staphylococcus aureus). Described as above.
Experiment [15] addresses IsaA oligopeptide SEQ ID NO: 46 (Staphylococcus aureus). Described as above.
Experiment [16] deals with IsaA oligopeptide SEQ ID NO: 52 (Staphylococcus aureus). Described as above.
For experiment [17], the target named is IsaA oligopeptide SEQ ID NO: 56 (Staphylococcus aureus). The description is as above.
Experiment [18] concerns the target IsaA oligopeptide SEQ ID NO: 59 (Staphylococcus aureus). Described as above.
For experiment [19], the target named is IsaA oligopeptide SEQ ID NO: 64 (Staphylococcus aureus). The description is as above.
Experiment [20] addresses IsaA oligopeptide SEQ ID NO: 9 (Staphylococcus aureus). Described as above.
Experiment [21] has as its target T1, IsaA oligopeptide SEQ ID NO: 17 (Staphylococcus aureus).
T1 construct: Synthetic 15-mer of IsaA, spotted on a glass slide
T1 peptide: NVDQAHLVDLAHNHQ
The description is as above.
Experimental: (§1) Each oligopeptide was immobilized on a small spot on a glass side. Binding of the monoclonal antibodies secreted by the hybridoma cell line DSM ACC2987 and of control antibodies to these spots was examined upon incubation with these antibodies by binding of fluorescence labeled secondary antibodies and detecting fluorescence intensities.

The target in experiment [22] is T2, IsaA oligopeptide SEQ ID NO: 18 (Staphylococcus aureus).
T2 construct: Synthetic 15-mer of IsaA, spotted on a glass slide
T2 peptide: AHLVDLAHNHQDQLN
Described as above.
Experimental: as §1

Experiment [23] has as its target T3, IsaA oligopeptide SEQ ID NO: 20 (Staphylococcus aureus).
T3 construct: Synthetic 15-mer of IsaA, spotted on a glass slide
T3 peptide: NHQDQLNAAPIKDGA
Described as above.
Experimental: as §1

Experiment [24] concerns the target T4, IsaA oligopeptide SEQ ID NO: 22 (Staphylococcus aureus).
T4 construct: Synthetic 15-mer of IsaA, spotted on a glass slide
T4 peptide: APIKDGAYDIHFVKD
The experiment is described as above.
Experimental: as §1

The target of experiment [25] is T5, IsaA oligopeptide SEQ ID NO: 26 (Staphylococcus aureus).
T5 construct: Synthetic 15-mer of IsaA, spotted on a glass slide
T5 peptide: FQYNFTSNGTTWSWS
The description is as above.
Experimental: as §1

The target of experiment [26] is T6, IsaA oligopeptide SEQ ID NO: 35 (Staphylococcus aureus).
T6 construct: Synthetic 15-mer of IsaA, spotted on a glass slide
T6 peptide: SYNQGSDVQSVSYNA
The experiment is described as above.
Experimental: as §1

Experiment [27] has as its target T7, IsaA oligopeptide SEQ ID NO: 39 (Staphylococcus aureus).
T7 construct: Synthetic 15-mer of IsaA, spotted on a glass slide
T7 peptide: SSNSNVEAVSAPTYH
The description is as above.
Experimental: as §1

Experiment [28] addresses T8, IsaA oligopeptide SEQ ID NO: 41 (Staphylococcus aureus).
T8 construct: Synthetic 15-mer of IsaA, spotted on a glass slide
T8 peptide: VSAPTYHNYSTSTTS
Described as above.
Experimental: as §1

Experiment [29] deals with T9, IsaA oligopeptide SEQ ID NO: 42 (Staphylococcus aureus).
T9 construct: Synthetic 15-mer of IsaA, spotted on a glass slide
T9 peptide: TYHNYSTSTTSSSVR
Described as above.
Experimental: as §1

Experiment [30] addresses T10, IsaA oligopeptide SEQ ID NO: 45 (Staphylococcus aureus).
T10 construct: Synthetic 15-mer of IsaA, spotted on a glass slide
T10 peptide: SVRLSNGNTAGATGS
The experiment is described as above.
Experimental: as §1

The target of experiment [31] is T11, IsaA oligopeptide SEQ ID NO: 48 (Staphylococcus aureus).
T11 construct: Synthetic 15-mer of IsaA, spotted on a glass slide
T11 peptide: TGSSAAQIMAQRTGV
Described as above.
Experimental: as §1

Experiment [32] has as its target T12, IsaA oligopeptide SEQ ID NO: 55 (Staphylococcus aureus).
T12 construct: Synthetic 15-mer of IsaA, spotted on a glass slide
T12 peptide: NGQVNAYNPSGASGL
The experiment is described as above.
Experimental: as §1

The target in experiment [33] is T13, IsaA oligopeptide SEQ ID NO: 62 (Staphylococcus aureus).
T13 construct: Synthetic 15-mer of IsaA, spotted on a glass slide
T13 peptide: DQQINAAVKAYKAQG
The experiment is described as above.
Experimental: as §1

Experiment [34] has as its target T14, recombinant IsaA protein of Staphylococcus aureus (29 kDa immunodominant antigen IsaA) (Staphylococcus aureus, UniProt Q2FV52 30-233, limits assumed).
T14 construct: Coated as rIsaA in the ELISA; In the first SPR experiment it was N-biotinylated with sulfo-NHS-LC-biotin (mostly at a single site) and immobilised on streptavidin; In the second SPR experiment it was the analyte in solution; also called rIsaA; 29 kDa IsaA antigen
T14 sequence (looked up): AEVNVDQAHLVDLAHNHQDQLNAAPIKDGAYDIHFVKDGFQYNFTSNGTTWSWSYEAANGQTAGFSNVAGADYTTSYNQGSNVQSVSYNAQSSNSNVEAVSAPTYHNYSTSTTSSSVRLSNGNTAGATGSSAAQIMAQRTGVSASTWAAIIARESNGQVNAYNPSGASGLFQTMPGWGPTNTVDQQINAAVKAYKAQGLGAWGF
As to the kind of experiment: SPR (BIACORE 2000), biotinylated IsaA on streptavidin chip, antibody as analyte. A general note: Surface plasmon resonance follows binding to a sensor surface in real time, without labels.
Experimental: The amount of the immobilized antigen corresponds to about 100 resonance units [RU] measured by means of the BIACORE®2000 system.
Interaction analyses were performed using HBS150 buffer (10 mM HEPES pH7.4, 150 mM NaCl, 3.4 mM EDTA). Sensorgrams were recorded at a flow rate of 10 μl/min at 25° C. The association and dissociation time was set to 10 min. The chips were regenerated after each cycle with different regeneration solutions (A: 1 mM CH₃COOH, 1 M NaCl, pH 3; B: 4 M MgCl₂; C: 1 mM CH₃COOH, 1 M NaCl, 6 M Urea, pH 3) for 2 min.

Where two headings read alike, the source gives them in different places.

The record followed here is patent US20160109449A1 (JULIUS MAXIMILIANS UNIVERSITAET WUERZBURG, published 2016).

For the molecule “control antibodies (peptide array) (antibody)”, the Binding (fluorescence intensity) in experiment [1] was 160; in [2] it was 107; in experiment [3] it was 182; in [4] it was 26.3; in [5], 367; in experiment [6], -61.7. The Binding (fluorescence intensity) in [7] worked out at 261; in experiment [8], 81; in [9], 98.3; in [10], 110; in experiment [11] it was 97.7; in [12], 35.7. Also, the Binding (fluorescence intensity) was 44.3 in experiment [13]; -4.3 in experiment [14]; -24.3 in [15]; -60 in [16]; -17.3 in experiment [17]; 132 in experiment [18]. In addition, the Binding (fluorescence intensity) was found to be 42 in experiment [19] and 70 in [20].

B1: monoclonal antibody MAB-UK-66 secreted by hybridoma cell line DSM ACC2987 (antibody, V domains shown)
VH: DVKLVESGGGLVKLGGSLKLSCSASGFTFSNYYMSWVRQTPEKRLELVADINGNGGSTYYPDTVKGRFTISRDNAKNTLYLQMSSLKSEDTALYYCVRRGGYYALDYWGQGTTVTVSS
VL: DVVMTQTPLSLPVSLGDQASISCRSSQSLVHINGNTYLHWYLQKPGQSPKLLIYRVSNRFSGVPDRFSGSGSGTDFTLKISRVEAEDLGVYFCSQSTHVPWTFGGGTKLELKR
notes: Monoclonal mouse antibody from a hybridoma; Detected with anti-mouse IgG; also called antibodies secreted by cell line DSM ACC2987; anti-IsaA MAB
A word on the koff: it is the first-order rate constant of dissociation. Turning to B1, the “Binding (fluorescence intensity)” value worked out at 17700 in experiment [21]; 25300 in [22]; 1050 in [23]; 21500 in experiment [24]; 51800 in [25]; 506 in experiment [26]. Moreover, the “Binding (fluorescence intensity)” value in experiment [27] amounted to 491; in [28], 421; in [29], 579; in experiment [30] it was 235; in experiment [31], 1170; in [32], 1030. The “Binding (fluorescence intensity)” value in experiment [33] was 551. Also, the off-rate constant (koff) in [34] is less than 1e-05 s⁻¹.
